Results as given in US20240368250A1 (Ablynx, published 2024).

Legend:
[1] = target: T1, Human serum albumin (HSA; Sigma-Aldrich Cat No. A8763) (human, UniProt P02768 25-609); assay: SPR Biacore 8K+, HSA on CM5 chip, pH 6.0, 1:1 fit
[2] = target: T1, Human serum albumin (HSA; Sigma-Aldrich …); assay: SPR Biacore 8K+, HSA on CM5 chip, pH 7.4, 1:1 fit
[3] = target: T2, Mouse serum albumin (MSA; Albumin Bioscience Cat No. 2601) (mouse, UniProt P07724 25-608); assay: SPR Biacore 8K+, MSA on CM5 chip, pH 6.0, 1:1 fit
[4] = target: T2, Mouse serum albumin (MSA; Albumin …); assay: SPR Biacore 8K+, MSA on CM5 chip, pH 7.4, 1:1 fit
[5] = target: T1, Human serum albumin (HSA; Sigma-Aldrich …); assay: SPR Biacore 8K+, HSA on C1 chip, pH 7.4, 1:1 fit
[6] = target: T2, Mouse serum albumin (MSA; Albumin …); assay: SPR Biacore 8K+, MSA on C1 chip, pH 7.4, 1:1 fit (off-rate only)
[7] = target: T3, Human FcRn (biotinylated human FcRn) (human, UniProt P61769 21-119); assay: SPR Biacore 8K+, biotinylated hFcRn on SA chip (~500-600 RU), pH 6.0, bivalent analyte fit (KD1)
T3 construct: Biotinylated human FcRn captured on a Series S Sensor Chip SA; also called human neonatal Fc receptor; hFcRn

[8] = target: T3, Human FcRn (biotinylated human FcRn); assay: SPR Biacore 8K+, biotinylated hFcRn on SA chip (~500-600 RU), pH 6.0, bivalent analyte fit (ka1)
[9] = target: T3, Human FcRn (biotinylated human FcRn); assay: SPR Biacore 8K+, biotinylated hFcRn on SA chip (~500-600 RU), pH 6.0, bivalent analyte fit (kd1)
[10] = target: T3, Human FcRn (biotinylated human FcRn); assay: SPR Biacore 8K+, biotinylated hFcRn on SA chip (~500-600 RU), pH 6.0, bivalent analyte fit;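 note: analytes were Fc proteins binding to biotinylated human FcRn captured on a Series S streptavidin sensor chip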

Binder	Kd [1]	koff [1]	kon [1]	Kd [2]	koff [2]	kon [2]	Kd [3]	koff [3]	kon [3]	Kd [4]	koff [4]	kon [4]	Kd [7]	kon [8]	koff [9]	KD2 [10]	ka2 [10]	kd2 [10]	further results
TP016 (Fc fusion) chain 1: DVQLVESGGGLVQPGGSLRLSCAASGLTFSTNPMYWYRQAPGKQRELVASISSRGITNYADSVKGRFTISRDNSKNTVYLQMNSLRPEDTAVYYCRLASLSSGTVYWGQGTLVTVSSDKTHTCPPCPAPEAAGGPSVFLFPPKPKDTLMASRTPEVTCVVVDVSQEDPEVQFNWYVDGVEVHNAKTKPREEQFNSTYRVVSVLTVLAQDWLNGKEYKCKVSNKGLPSSIEKTISKAKGQPREPQVYTLPPCQEEMTKNQVSLWCLVKGFYPSDIAVEWESNGQPENNYKTTPPVLDSDGSFFLYSKLTVDKSRWQEGNVFSCSVMHEALHNAYTQKSLSLSLG chain 2: DVQLVESGGGVVQPGGSLRLSCAASGFTFRSFGMSWVRQAPGKGPEWVSSISGSGSDTLYADSVKGRFTISRDNSKNTLYLQMNSLRPEDTALYYCTIGGSLSRSSQGTLVTVSSDKTHTCPPCPAPEAAGGPSVFLFPPKPKDTLMASRTPEVTCVVVDVSQEDPEVQFNWYVDGVEVHNAKTKPREEQFNSTYRVVSVLTVLAQDWLNGKEYKCKVSNKGLPSSIEKTISKAKGQPREPQVCTLPPSQEEMTKNQVSLSCAVKGFYPSDIAVEWESNGQPENNYKTTPPVLDSDGSFFLVSKLTVDKSRWQEGNVFSCSVMHEALHNAYTQKSLSLSLG	3.7 nM	0.0004 s⁻¹	110000 M⁻¹ s⁻¹	9.3 nM	0.00057 s⁻¹	61000 M⁻¹ s⁻¹	22 nM	0.0038 s⁻¹	170000 M⁻¹ s⁻¹	35 nM	0.0042 s⁻¹	120000 M⁻¹ s⁻¹	–	–	–	–	–	–	–
TP019 (Fc fusion) chain 1: DVQLVESGGGLVQPGGSLRLSCAASGLTFSTNPMYWYRQAPGKQRELVASISSRGITNYADSVKGRFTISRDNSKNTVYLQMNSLRPEDTAVYYCRLASLSSGTVYWGQGTLVTVSSDKTHTCPPCPAPEAAGGPSVFLFPPKPKDTLMASRTPEVTCVVVDVSQEDPEVQFNWYVDGVEVHNAKTKPREEQFNSTYRVVSVLTVLAQDWLNGKEYKCKVSNKGLPSSIEKTISKAKGQPREPQVYTLPPCQEEMTKNQVSLWCLVKGFYPSDIAVEWESNGQPENNYKTTPPVLDSDGSFFLYSKLTVDKSRWQEGNVFSCSVMHEALHNAYTQKSLSLSLGGGGGSGGGGSGGGGSGGGGSGGGGSGGGGSGGGGSEVQLVESGGGVVQPGGSLRLSCAASGFTFRSFGMSWVRQAPGKGPEWVSSISGSGSDTLYADSVKGRFTISRDNSKNTLYLQMNSLRPEDTALYYCTIGGSLSRSSQGTLVTVSS chain 2: DKTHTCPPCPAPEAAGGPSVFLFPPKPKDTLMASRTPEVTCVVVDVSQEDPEVQFNWYVDGVEVHNAKTKPREEQFNSTYRVVSVLTVLAQDWLNGKEYKCKVSNKGLPSSIEKTISKAKGQPREPQVCTLPPSQEEMTKNQVSLSCAVKGFYPSDIAVEWESNGQPENNYKTTPPVLDSDGSFFLVSKLTVDKSRWQEGNVFSCSVMHEALHNAYTQKSLSLSLG	26 nM	0.0016 s⁻¹	61000 M⁻¹ s⁻¹	51 nM	0.0019 s⁻¹	36000 M⁻¹ s⁻¹	50 nM	0.5 s⁻¹	1e+07 M⁻¹ s⁻¹	50 nM	0.5 s⁻¹	1e+07 M⁻¹ s⁻¹	–	–	–	–	–	–	–
TPP-66152 (Fc fusion, IgG4 FALA Fc knob-in-hole, C-terminal ABD via 35GS on chain 2) chain 1: DVQLVESGGGVVQAGGSLSISCAASGGSLSNYVLGWFRQAPGKEREFVAAINWRGDITIGPPNVEGRFTISRDNAKNTGYLQMNSLAPDDTALYYCGAGTPLNPGAYIYDWSYDYWGRGTLVTVSSDKTHTCPPCPAPEAAGGPSVFLFPPKPKDTLMISRTPEVTCVVVDVSQEDPEVQFNWYVDGVEVHNAKTKPREEQFNSTYRVVSVLTVLHQDWLNGKEYKCKVSNKGLPSSIEKTISKAKGQPREPQVYTLPPCQEEMTKNQVSLWCLVKGFYPSDIAVEWESNGQPENNYKTTPPVLDSDGSFFLYSKLTVDKSRWQEGNVFSCSVMHEALHNHYTQKSLSLSLG chain 2: DVQLVESGGGVVQAGGSLSISCAASGGSLSNYVLGWFRQAPGKEREFVAAINWRGDITIGPPNVEGRFTISRDNAKNTGYLQMNSLAPDDTALYYCGAGTPLNPGAYIYDWSYDYWGRGTLVTVSSDKTHTCPPCPAPEAAGGPSVFLFPPKPKDTLMISRTPEVTCVVVDVSQEDPEVQFNWYVDGVEVHNAKTKPREEQFNSTYRVVSVLTVLHQDWLNGKEYKCKVSNKGLPSSIEKTISKAKGQPREPQVCTLPPSQEEMTKNQVSLSCAVKGFYPSDIAVEWESNGQPENNYKTTPPVLDSDGSFFLVSKLTVDKSRWQEGNVFSCSVMHEALHNRFTQKSLSLSLGGGGGSGGGGSGGGGSGGGGSGGGGSGGGGSGGGGSLKEAKEKAIEELKKAGITSDYYFDLINKAKTVEGVNALKDEILKA	–	–	–	–	–	–	–	–	–	–	–	–	1860 nM	57500 M⁻¹ s⁻¹	0.107 s⁻¹	–	–	–	Kd [5]: 2.24 nM; koff [5]: 0.000201 s⁻¹; kon [5]: 89500 M⁻¹ s⁻¹; koff [6]: 0.00111 s⁻¹
TPP-66143 (Fc fusion, IgG4 FALA Fc knob-in-hole (hole chain H435R, Y436F) with three irrelevant ISVDs; control; also called control ISVD-Fc polypeptide) chain 1: DVQLVESGGGVVQAGGSLSISCAASGGSLSNYVLGWFRQAPGKEREFVAAINWRGDITIGPPNVEGRFTISRDNAKNTGYLQMNSLAPDDTALYYCGAGTPLNPGAYIYDWSYDYWGRGTLVTVSSDKTHTCPPCPAPEAAGGPSVFLFPPKPKDTLMISRTPEVTCVVVDVSQEDPEVQFNWYVDGVEVHNAKTKPREEQFNSTYRVVSVLTVLHQDWLNGKEYKCKVSNKGLPSSIEKTISKAKGQPREPQVYTLPPCQEEMTKNQVSLWCLVKGFYPSDIAVEWESNGQPENNYKTTPPVLDSDGSFFLYSKLTVDKSRWQEGNVFSCSVMHEALHNHYTQKSLSLSLGGGGGSGGGGSGGGGSGGGGSGGGGSGGGGSGGGGSEVQLVESGGGVVQAGGSLSISCAASGGSLSNYVLGWFRQAPGKEREFVAAINWRGDITIGPPNVEGRFTISRDNAKNTGYLQMNSLAPDDTALYYCGAGTPLNPGAYIYDWSYDYWGRGTLVTVSSA chain 2: DVQLVESGGGVVQAGGSLSISCAASGGSLSNYVLGWFRQAPGKEREFVAAINWRGDITIGPPNVEGRFTISRDNAKNTGYLQMNSLAPDDTALYYCGAGTPLNPGAYIYDWSYDYWGRGTLVTVSSDKTHTCPPCPAPEAAGGPSVFLFPPKPKDTLMISRTPEVTCVVVDVSQEDPEVQFNWYVDGVEVHNAKTKPREEQFNSTYRVVSVLTVLHQDWLNGKEYKCKVSNKGLPSSIEKTISKAKGQPREPQVCTLPPSQEEMTKNQVSLSCAVKGFYPSDIAVEWESNGQPENNYKTTPPVLDSDGSFFLVSKLTVDKSRWQEGNVFSCSVMHEALHNRFTQKSLSLSLG	–	–	–	–	–	–	–	–	–	–	–	–	941 nM	82800 M⁻¹ s⁻¹	0.0779 s⁻¹	4.24 M	3.22e-05 1/RUs	0.000136 s⁻¹	–
TPP-66175 (Fc fusion, IgG4 FALA Fc (YTE) knob-in-hole with three irrelevant ISVDs; control; also called control ISVD-Fc(YTE) polypeptide) chain 1: DVQLVESGGGVVQAGGSLSISCAASGGSLSNYVLGWFRQAPGKEREFVAAINWRGDITIGPPNVEGRFTISRDNAKNTGYLQMNSLAPDDTALYYCGAGTPLNPGAYIYDWSYDYWGRGTLVTVSSDKTHTCPPCPAPEAAGGPSVFLFPPKPKDTLYITREPEVTCVVVDVSQEDPEVQFNWYVDGVEVHNAKTKPREEQFNSTYRVVSVLTVLHQDWLNGKEYKCKVSNKGLPSSIEKTISKAKGQPREPQVYTLPPCQEEMTKNQVSLWCLVKGFYPSDIAVEWESNGQPENNYKTTPPVLDSDGSFFLYSKLTVDKSRWQEGNVFSCSVMHEALHNHYTQKSLSLSLGGGGGSGGGGSGGGGSGGGGSGGGGSGGGGSGGGGSEVQLVESGGGVVQAGGSLSISCAASGGSLSNYVLGWFRQAPGKEREFVAAINWRGDITIGPPNVEGRFTISRDNAKNTGYLQMNSLAPDDTALYYCGAGTPLNPGAYIYDWSYDYWGRGTLVTVSSA chain 2: DVQLVESGGGVVQAGGSLSISCAASGGSLSNYVLGWFRQAPGKEREFVAAINWRGDITIGPPNVEGRFTISRDNAKNTGYLQMNSLAPDDTALYYCGAGTPLNPGAYIYDWSYDYWGRGTLVTVSSDKTHTCPPCPAPEAAGGPSVFLFPPKPKDTLYITREPEVTCVVVDVSQEDPEVQFNWYVDGVEVHNAKTKPREEQFNSTYRVVSVLTVLHQDWLNGKEYKCKVSNKGLPSSIEKTISKAKGQPREPQVCTLPPSQEEMTKNQVSLSCAVKGFYPSDIAVEWESNGQPENNYKTTPPVLDSDGSFFLVSKLTVDKSRWQEGNVFSCSVMHEALHNRFTQKSLSLSLG	–	–	–	–	–	–	–	–	–	–	–	–	179 nM	93300 M⁻¹ s⁻¹	0.0167 s⁻¹	3.98 M	0.0232 1/RUs	0.0922 s⁻¹	–
TPP-66176 (Fc fusion, Symmetrical IgG4 FALA Fc fusion without knob-in-hole mutations, four irrelevant ISVDs; control; also called symmetrical ISVD-Fc polypeptide) DVQLVESGGGVVQAGGSLSISCAASGGSLSNYVLGWFRQAPGKEREFVAAINWRGDITIGPPNVEGRFTISRDNAKNTGYLQMNSLAPDDTALYYCGAGTPLNPGAYIYDWSYDYWGRGTLVTVSSDKTHTCPSCPAPEAAGGPSVFLFPPKPKDTLMISRTPEVTCVVVDVSQEDPEVQFNWYVDGVEVHNAKTKPREEQFNSTYRVVSVLTVLHQDWLNGKEYKCKVSNKGLPSSIEKTISKAKGQPREPQVYTLPPSQEEMTKNQVSLTCLVKGFYPSDIAVEWESNGQPENNYKTTPPVLDSDGSFFLYSKLTVDKSRWQEGNVFSCSVMHEALHNHYTQKSLSLSLGGGGGSGGGGSGGGGSGGGGSGGGGSGGGGSGGGGSEVQLVESGGGVVQAGGSLSISCAASGGSLSNYVLGWFRQAPGKEREFVAAINWRGDITIGPPNVEGRFTISRDNAKNTGYLQMNSLAPDDTALYYCGAGTPLNPGAYIYDWSYDYWGRGTLVTVSSA	–	–	–	–	–	–	–	–	–	–	–	–	1260 nM	62900 M⁻¹ s⁻¹	0.0794 s⁻¹	4.53 M	3.79e-05 1/RUs	0.000172 s⁻¹	–
